Target: LRH-1 ligand binding domain (LBD), residues 299-541, His tag cleaved (human, UniProt O00482 299-541)
Test: crystal structure

LRH-1 ligand binding domain (LBD), residues 299-541, His tag cleaved, sequence (O00482 299-541): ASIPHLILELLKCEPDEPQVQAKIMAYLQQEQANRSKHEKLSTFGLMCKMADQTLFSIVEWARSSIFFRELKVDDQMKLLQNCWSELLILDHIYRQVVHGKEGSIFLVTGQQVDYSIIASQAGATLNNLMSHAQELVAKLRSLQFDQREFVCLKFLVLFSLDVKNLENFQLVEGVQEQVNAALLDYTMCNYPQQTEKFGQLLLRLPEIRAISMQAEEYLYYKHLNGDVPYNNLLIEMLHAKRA

binding result: binds
B1: Tif2 peptide (transcriptional intermediary factor 2 coregulator peptide) (peptide)
peptide: KENALLRYLLDK

Source: article doi:10.1101/2020.09.01.278291 (bioRxiv, 2020)
